From US20080131510

Legend:
[1] = test system: Lys*-Ala-Gly-Leu-Leu-Cys (SEQ ID NO:32)
[2] = test system: Lys*-Gly-Leu-Cys (SEQ ID NO:33)
[3] = test system: Lys*-Pro-Ala-Gly-Leu-Leu-Gly-Cys (SEQ ID NO:2), pendant in PEG(8000)DA hydrogel and complexed with Pt
[4] = test system: Lys*-Pro-Ala-Gly-Leu-Leu-Gly-Cys (SEQ ID NO:2)
[5] = test system: Lys*-Ala-Gly-Leu-Leu-Cys (SEQ ID NO:32); test: peptide cleavage kinetics by HPLC, 10 nM activated MMP; the filing calls Km 'affinity or binding strength'
[6] = test system: Lys*-Gly-Leu-Cys (SEQ ID NO:33); test: as above
[7] = test system: Lys*-Pro-Ala-Gly-Leu-Leu-Gly-Cys (SEQ ID NO:2); test: as above

matrix metalloprotease-9 (MMP-9), activated, sequence (chain, as listed by the source): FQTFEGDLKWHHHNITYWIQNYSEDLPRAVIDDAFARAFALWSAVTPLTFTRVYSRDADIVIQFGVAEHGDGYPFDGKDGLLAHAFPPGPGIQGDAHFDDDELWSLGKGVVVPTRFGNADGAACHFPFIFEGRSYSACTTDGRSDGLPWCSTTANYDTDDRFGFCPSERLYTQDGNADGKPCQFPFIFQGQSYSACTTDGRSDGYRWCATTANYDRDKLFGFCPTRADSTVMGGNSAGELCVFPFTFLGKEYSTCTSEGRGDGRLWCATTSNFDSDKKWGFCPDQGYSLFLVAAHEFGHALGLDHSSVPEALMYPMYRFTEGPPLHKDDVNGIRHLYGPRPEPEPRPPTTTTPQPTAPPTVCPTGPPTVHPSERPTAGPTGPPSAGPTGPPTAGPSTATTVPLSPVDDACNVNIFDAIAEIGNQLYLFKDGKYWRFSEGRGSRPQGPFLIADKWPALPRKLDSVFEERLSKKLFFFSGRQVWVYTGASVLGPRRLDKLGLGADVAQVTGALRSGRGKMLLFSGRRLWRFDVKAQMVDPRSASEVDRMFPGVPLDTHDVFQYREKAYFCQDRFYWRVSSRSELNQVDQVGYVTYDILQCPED

## matrix metalloprotease-9 (MMP-9), activated
[1]
  Kcat/Km: 252 M⁻¹ s⁻¹
  Vmax: 9.9e-10 M/s
  kcat: 0.04 s⁻¹
[2]
  Kcat/Km: 358 M⁻¹ s⁻¹
  Vmax: 5.3e-09 M/s
  kcat: 0.21 s⁻¹
[3]
  release of cleaved fragment from the PEG(8000)DA hydrogels: the addition of MMP-2 and MMP-9 showed a significantly higher release of cleaved fragment from the PEG(8000)DA hydrogels compared to the control
[4]
  Kcat/Km: 24000 M⁻¹ s⁻¹
  Vmax: 2.4e-07 M/s
  kcat: 9.6 s⁻¹
[5]
  Km: 160 µM
[6]
  Km: 600 µM
[7]
  Km: 400 µM
